In publication PMC7703590:

Target: SARS-CoV-2 RBD-Fc (SARS-CoV-2) (UniProt P0DTC2)
Assay: BLI

Row | Substance | avidity [pM] | koff [s⁻¹]
1 | IgG1 ab1 (antibody) | 160 | –
2 | IgG1 ab1 (from UniProt P01857) | – | 4e-05
